Experimental data taken from the supplement of paper PMC10567573.
± gives the standard deviation.

Test: protein stability index of a GFP-peptide fusion (GPS, HEK-293T) (PSI 1-6); higher = more stable
[1] = treatment: DMSO, c terminus: a fixed tail appended
[2] = treatment: MLN4924 1 uM, 8 h, c terminus: a fixed tail appended
[3] = treatment: DMSO, c terminus: native
[4] = treatment: MLN4924 1 uM, 8 h, c terminus: native
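Also: 24-mer peptide tiles fused after GFP, lentivirally expressed, FACS-sorted into six equal bins by GFP/DsRed ratio, decoded by Illumina sequencing, PSI is the read-weighted mean bin number.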

Sequence: TPCGPAQACMGGRCLHMDQLQDFN [ADAMTS4]
- protein stability index [1]: 2.63 ± 0.25
- protein stability index [2]: 2.75 ± 0.17

Sequence: DANTWRLYGGMNYRRLGGGVGVIK [KLHL20]
- protein stability index [1]: 2.63 ± 0.24
- protein stability index [2]: 2.54 ± 0.38

Sequence: YSKESIIFGASSVDFSLSGRLLFA [GNB5]
- protein stability index [1]: 2.84 ± 0.74
- protein stability index [2]: 2.78 ± 0.68

Sequence: SIIILLELAILGGLVYYKFFRSH [VTI1B]
- protein stability index [3]: 2.78 ± 0.27
- protein stability index [4]: 2.63 ± 0.45

Sequence: RDRFKSFQRRNMIEPRERAKFKRK [NOP53]
- protein stability index [1]: 4.11 ± 0.47
- protein stability index [2]: 4.54 ± 0.35

Sequence: KPKPPPNSEGEQGPNGSQNSSYSQ [CCNC]
- protein stability index [1]: 5.43 ± 0.14
- protein stability index [2]: 5.55 ± 0.18

Sequence: RVLDGKEAKAVGLISHVLEQNQEG [AUH]
- protein stability index [1]: 4.53 ± 0.38
- protein stability index [2]: 4.95 ± 0.088

Sequence: ERVWALAQEKAADVQARLNRSDHG [FCHSD1]
- protein stability index [1]: 4.23 ± 0.13
- protein stability index [2]: 4.23 ± 0.24

Sequence: GSQLPKPRMLRESGHGDAHLQEYA [FATE1]
- protein stability index [1]: 4.38 ± 0.25
- protein stability index [2]: 4.5 ± 0.11

Sequence: KSSIIPFRALKRPLQFLGLFENSL [ZER1]
- protein stability index [1]: 1.9 ± 0.5
- protein stability index [2]: 2.31 ± 0.45

Sequence: AESWCYTQVKVVKFSYMWTINNFS [SPOPL]
- protein stability index [1]: 3.24 ± 0.56
- protein stability index [2]: 3.01 ± 0.5

Sequence: TPPTTTAEIATASASASTTTTVTA [SNAP91]
- protein stability index [1]: 5.39 ± 0.15
- protein stability index [2]: 5.3 ± 0.13

Sequence: GSCQLGGGRGVSTCSTRFVSGGSA [KRT13]
- protein stability index [1]: 3.32 ± 0.47
- protein stability index [2]: 3.87 ± 0.21

Sequence: NNFDNLDFDLDLVPWESDIWDINN [ATF6]
- protein stability index [1]: 3.2 ± 0.21
- protein stability index [2]: 3.46 ± 0.11

Sequence: PILSRSTSTGSAASSGSNSSASSE [SPRY1]
- protein stability index [1]: 5.42 ± 0.22
- protein stability index [2]: 5.44 ± 0.19

Sequence: GPGEPDVRDGFSATFEKILESELL [PSD2]
- protein stability index [1]: 3.91 ± 0.25
- protein stability index [2]: 4.03 ± 0.34

Sequence: DGKCAYRASYSDGKLKAPPKPCAG [MLH1]
- protein stability index [1]: 4.11 ± 0.3
- protein stability index [2]: 4.06 ± 0.056

Sequence: HSNGPTDLSMKGGASTTSTTPSAL [NOL4L]
- protein stability index [1]: 4.94 ± 0.19
- protein stability index [2]: 4.94 ± 0.3

Sequence: LNLDIGQVYKETRLFLDGEEEKEW [AASDHPPT]
- protein stability index [1]: 3.95 ± 0.43
- protein stability index [2]: 4.09 ± 0.44

Sequence: NESHSIKAILKNISVLAFSVCFIF [SLC29A1]
- protein stability index [1]: 2.79 ± 0.61
- protein stability index [2]: 2.54 ± 0.4

Sequence: AFSYSSSSRFSSSRLLGSASPSSS [PRPH]
- protein stability index [1]: 3.04 ± 0.21
- protein stability index [2]: 3.09 ± 0.051

Sequence: HQPPYIIAVLPRYVEIRTFEPRLL [VPS39]
- protein stability index [1]: 2.61 ± 0.75
- protein stability index [2]: 2.38 ± 0.37

Sequence: STARRSRAASSQRAEEEDDDIKQL [CHMP4C]
- protein stability index [1]: 5.59 ± 0.073
- protein stability index [2]: 5.46 ± 0.25

Sequence: FCNISLFEDLPLQEPQSPQKLNPG [PLAGL1]
- protein stability index [1]: 3 ± 0.2
- protein stability index [2]: 3.21 ± 0.25

Sequence: RPHGIFGPRDPQLVPILIEAARNG [NSDHL]
- protein stability index [1]: 2.91 ± 0.34
- protein stability index [2]: 3.04 ± 0.24

Sequence: KNLQQTTNTTSTQMTNIGVYVSNM [IQUB]
- protein stability index [1]: 3.25 ± 0.29
- protein stability index [2]: 3.17 ± 0.22

Sequence: VSPPESPTVTTSWQSESLPVSLSA [BCL2L13]
- protein stability index [1]: 4.43 ± 0.08
- protein stability index [2]: 4.37 ± 0.27

Sequence: RLASYLDKVRALEEANADLEVKIH [KRT15]
- protein stability index [1]: 2.33 ± 0.15
- protein stability index [2]: 2.67 ± 0.22

Sequence: GCSQFRLAVLDWNQRAMDLYKALG [SAT2]
- protein stability index [1]: 2.2 ± 0.39
- protein stability index [2]: 2.02 ± 0.18

Sequence: QSSCSGPTHTPRPADFSLGSLPGP [VENTX]
- protein stability index [1]: 3.83 ± 0.13
- protein stability index [2]: 3.89 ± 0.36

Sequence: LPRKESPSVRSSKDGKLLAATLLL [TNFSF13B]
- protein stability index [1]: 2.26 ± 0.21
- protein stability index [2]: 2.18 ± 0.22

Sequence: GMLSYCDRYSEGIKHVLQTFGPIP [CRYL1]
- protein stability index [1]: 2.72 ± 0.5
- protein stability index [2]: 2.196 ± 0.02

Sequence: HRPSTLQAASTPQAEEDWTCTIL [OAS1]
- protein stability index [3]: 4.18 ± 0.17
- protein stability index [4]: 4.45 ± 0.14

Sequence: LESSDLPVALLLAQHKDRSTQLEM [MNAT1]
- protein stability index [1]: 3.47 ± 0.23
- protein stability index [2]: 3.53 ± 0.3

Sequence: ASSVHLKSESSLPHQTSKMENLPG
- protein stability index [1]: 4.8 ± 0.26
- protein stability index [2]: 4.85 ± 0.49

Sequence: LSTADGKAFADPEVLRRLTSSVSC [ANKRD17]
- protein stability index [1]: 3.55 ± 0.17
- protein stability index [2]: 3.69 ± 0.29

Sequence: TRQLSEENANLQEYVEKETQEKKR [MTUS2]
- protein stability index [1]: 5.33 ± 0.14
- protein stability index [2]: 5.56 ± 0.12

Sequence: IAAATSVLKTRFSYAFPKEFPYRM [CCNC]
- protein stability index [1]: 2.08 ± 0.12
- protein stability index [2]: 2.58 ± 0.51

Sequence: RDLKPENILVTSGGTVKLADFGLA [CDK4]
- protein stability index [1]: 3.31 ± 0.44
- protein stability index [2]: 3.33 ± 0.27

Sequence: EVKRAFFSKSKELHPDRDPGNPSL [DNAJC4]
- protein stability index [1]: 3.89 ± 0.12
- protein stability index [2]: 4.03 ± 0.37

Sequence: IGSKNGGKTTIILRCLDRDEPSKP [DYNC2LI1]
- protein stability index [1]: 2.54 ± 0.7
- protein stability index [2]: 3.16 ± 0.32

Sequence: RPQSAQSSFPPSPGPSPDVQLATL [AUP1]
- protein stability index [1]: 4.34 ± 0.44
- protein stability index [2]: 4.34 ± 0.47

Sequence: SKYCYGPQGSRSPYIPPHAALCLE [FKBP8]
- protein stability index [1]: 2.46 ± 0.54
- protein stability index [2]: 2.74 ± 0.3

Sequence: TRKLSPGKKRCKDIKRLLVNFMYL [SMG5]
- protein stability index [1]: 2.53 ± 0.45
- protein stability index [2]: 2.62 ± 0.48

Sequence: GCQLDLRYADLEAVNRARRPLARP [RHOBTB1]
- protein stability index [1]: 3.07 ± 0.12
- protein stability index [2]: 3.16 ± 0.28

Sequence: LRVMETKPDKAVSIIECDMNVDFD [UFD1]
- protein stability index [1]: 3.57 ± 0.43
- protein stability index [2]: 3.53 ± 0.28

Sequence: MAGTGLLALRTLPGPSWVRGSGPS [ALKBH7]
- protein stability index [1]: 2.68 ± 0.19
- protein stability index [2]: 2.88 ± 0.11

Sequence: RRHLQFWKSHLRNVQRPLLQAPFL [RHOBTB2]
- protein stability index [1]: 2.29 ± 0.38
- protein stability index [2]: 2.21 ± 0.3

Sequence: LSLLGAVGLAAVNSMPVDNRNHNE [CHGB]
- protein stability index [1]: 3.35 ± 0.2
- protein stability index [2]: 3.54 ± 0.5

Sequence: FYRSTAPSEDIWKKFELVPSPPTS [MYCL]
- protein stability index [1]: 2.67 ± 0.15
- protein stability index [2]: 2.76 ± 0.32

Sequence: QALEQFAAAAAHSTPVRREVTDKE [EPB41L3]
- protein stability index [1]: 5.02 ± 0.22
- protein stability index [2]: 4.89 ± 0.41

Sequence: HLTVHKRIHTGERPYMCKECGKAF [ZNF8]
- protein stability index [1]: 2.73 ± 0.28
- protein stability index [2]: 3.27 ± 0.38

Sequence: KGTEKQTTSETQKSVQCGTWTKHA [NETO1]
- protein stability index [1]: 4.84 ± 0.26
- protein stability index [2]: 4.82 ± 0.13

Sequence: RPHVHKQTEKTTRVRTVLNEKQLH [ISL2]
- protein stability index [1]: 4.21 ± 0.098
- protein stability index [2]: 4.39 ± 0.24

Sequence: RRPRRVEAERPHSLIGVIRETVL [FAM189A2]
- protein stability index [3]: 3.39 ± 0.12
- protein stability index [4]: 3.42 ± 0.22

Sequence: HYYKENDPSVRLKIASLLGLLSKT [INTS4]
- protein stability index [1]: 2.05 ± 0.31
- protein stability index [2]: 2.18 ± 0.23

Sequence: GYNLRALAEGVSASLHTLLGDPCP [HDAC6]
- protein stability index [1]: 2.6 ± 0.31
- protein stability index [2]: 2.64 ± 0.2

Sequence: PEHGDRVAELFCRRCRRCVCALCP [TRIM14]
- protein stability index [1]: 3.29 ± 0.55
- protein stability index [2]: 3.5 ± 0.1

Sequence: LSLTSSASRLLTTALTSFCAKYTY [FANCE]
- protein stability index [1]: 2.72 ± 0.48
- protein stability index [2]: 2.81 ± 0.67

Sequence: WSQPITTGKAPSPRAAHACATVGN [KLHDC2]
- protein stability index [1]: 3.84 ± 0.3
- protein stability index [2]: 3.92 ± 0.2

Sequence: LFAELGYFTDTDELQLEAANETYE [ATF6]
- protein stability index [1]: 4.04 ± 0.1
- protein stability index [2]: 4.15 ± 0.24

Sequence: AAENEFVLLKKDVDAAYANKVELQ [KRT71]
- protein stability index [1]: 4.7 ± 0.21
- protein stability index [2]: 4.54 ± 0.39

Sequence: NWLHRRLAGQFLEELRKFSSLCYK [MOG]
- protein stability index [1]: 2.5 ± 0.15
- protein stability index [2]: 2.57 ± 0.27

Sequence: LLSKKGALQSRAAQRHRGSAKDGG [PLEKHN1]
- protein stability index [1]: 4.31 ± 0.12
- protein stability index [2]: 4.39 ± 0.28

Sequence: EHQNKRSPLHAAAEAGHVDICHML [EHMT1]
- protein stability index [1]: 3.98 ± 0.27
- protein stability index [2]: 3.94 ± 0.12
